Measurements: US9018171B2, “Uses of an immunomodulatory protein (GMI) from Ganoderma microsporum” (Mycomagic Biotechnology Co., Ltd., priority 2010, dated 2015)
Where two headings read alike, the source gives them in different places.

Legend:
SNB-75 = assay: NCI60 in vitro screening, CNS Cancer; type: cell-based
UACC-62 = assay: NCI60 in vitro screening, Melanoma; type: cell-based
A498 = assay: NCI60 in vitro screening, Renal Cancer; type: cell-based
SK-MEL-2 = assay: NCI60 in vitro screening, Melanoma; type: cell-based; settings: SK-MEL-2, one dose
MOLT-4 = assay: NCI60 in vitro screening, Leukemia; type: cell-based
LOX IMVI = assay: NCI60 in vitro screening, Melanoma; type: cell-based; settings: one dose
NCI/ADR-RES = assay: NCI60 in vitro screening, Ovarian Cancer; type: cell-based
NCI-H23 = type: cell-based
TK-10 = assay: NCI60 in vitro screening, Renal Cancer; type: cell-based
RPMI-8226 = assay: NCI60 in vitro screening, Leukemia; type: cell-based
SF-295 = assay: NCI60 in vitro screening, CNS Cancer; type: cell-based
T-47D = assay: NCI60 in vitro screening, Breast Cancer; type: cell-based
NCI-H522 = type: cell-based
NCI-H460 = type: cell-based
HCC-2998 = assay: NCI60 in vitro screening, Colon Cancer; type: cell-based
A549 = assay: MTT assay, drug sensitivity; type: cell-based, human; settings: A549, 48 h, MTT
Method: (§1) A549 cell line and resistant A549 cell sublines (A549/D16, A549/D32 and A549/V16) (5000 cells/well of 96-well plate) were treated with increased doses concentrations (μM) of GMI from Ganoderma microsporum, docetaxel, vincristine and doxorubicin for 48 h, respectively. Cell viability was measured by MTT assay and the results are presented as the calculated cell growth inhibitory ratio. Experiments were repeated three times.

A549/D16 = assay: MTT assay, drug sensitivity; type: cell-based, human; settings: A549/D16, 48 h, MTT
Method: as §1

A549/V16 = assay: MTT assay, drug sensitivity; type: cell-based, human; settings: A549/V16, 48 h, MTT
Method: as §1

SW-620 = assay: NCI60 in vitro screening, Colon Cancer; type: cell-based
HCT-15 = assay: NCI60 in vitro screening, Colon Cancer; type: cell-based

B1: GMI: immunomodulatory protein from Ganoderma microsporum, amino acid sequence SEQ ID NO: 3, manufactured by Mycomagic Biotechnology Co., Ltd. (protein, listed as Ganoderma microsporum)
chain: MSDTALIFTLAWNVKQLAFDYTPNWGRGRPSSFIDTVTFPTVLTDKAYTYRVVVSGKDLGVRPSYAVESDGSQKINFLEYNSGYGIADTNTIQVYVIDPDTGNNFIVAQWN
**Q.** What does the source list for B1?
**A.** TGI (SNB-75; SNB-75): 1.45E1; Percent Growth (SNB-75; SNB-75, Log10 Concentration 0.1): 97%; Percent Growth (SNB-75; SNB-75, Log10 Concentration 1.1): 5%; Percent Growth (SNB-75; SNB-75, Log10 Concentration 2.1): −68%; Percent Growth (SNB-75; SNB-75, Log10 Concentration −0.9): 101%; Percent Growth (SNB-75; SNB-75, Log10 Concentration −1.9): 95%; Growth Percent (SNB-75; SNB-75, one dose): −45.73%; GI50 (SNB-75; SNB-75, in µg/mL): 4.04E0; LC50 (SNB-75; SNB-75, in µg/mL): 7.14E1; TGI (UACC-62; UACC-62): >1.25E2; Percent Growth (UACC-62; UACC-62, Log10 Concentration 0.1): 99%; Percent Growth (UACC-62; UACC-62, Log10 Concentration 1.1): 106%; Percent Growth (UACC-62; UACC-62, Log10 Concentration 2.1): 68%; Percent Growth (UACC-62; UACC-62, Log10 Concentration −0.9): 101%; Percent Growth (UACC-62; UACC-62, Log10 Concentration −1.9): 105%; Growth Percent (UACC-62; UACC-62, one dose): 115.96%; TGI (A498; A498): 7.07E1; Percent Growth (A498; A498, Log10 Concentration 0.1): 114%; Percent Growth (A498; A498, Log10 Concentration 1.1): 108%; Percent Growth (A498; A498, Log10 Concentration 2.1): −35%; Percent Growth (A498; A498, Log10 Concentration −0.9): 102%; Percent Growth (A498; A498, Log10 Concentration −1.9): 107%; Growth Percent (A498; A498, one dose): 98.16%; GI50 (A498; A498, in µg/mL): 3.17E1; Growth Percent (SK-MEL-2): 105.92%; TGI (MOLT-4; MOLT-4): >1.25E2; Percent Growth (MOLT-4; MOLT-4, Log10 Concentration 0.1): 103%; Percent Growth (MOLT-4; MOLT-4, Log10 Concentration 1.1): 62%; Percent Growth (MOLT-4; MOLT-4, Log10 Concentration 2.1): 1%; Percent Growth (MOLT-4; MOLT-4, Log10 Concentration −0.9): 97%; Percent Growth (MOLT-4; MOLT-4, Log10 Concentration −1.9): 95%; Growth Percent (MOLT-4; MOLT-4, one dose): 44.75%; GI50 (MOLT-4; MOLT-4, in µg/mL): 1.99E1; Growth Percent (LOX IMVI): 67.70%; TGI (NCI/ADR-RES): >1.25E2; Percent Growth (NCI/ADR-RES; Log10 Concentration 0.1): 105%; Percent Growth (NCI/ADR-RES; Log10 Concentration 1.1): 81%; Percent Growth (NCI/ADR-RES; Log10 Concentration 2.1): 19%; Percent Growth (NCI/ADR-RES; Log10 Concentration −0.9): 100%; Percent Growth (NCI/ADR-RES; Log10 Concentration −1.9): 102%; GI50 (NCI/ADR-RES; in µg/mL): 3.94E1; TGI (NCI-H23; NCI-H23): >1.25E2; Percent Growth (NCI-H23; NCI-H23, Log10 Concentration 0.1): 106%; Percent Growth (NCI-H23; NCI-H23, Log10 Concentration 1.1): 89%; Percent Growth (NCI-H23; NCI-H23, Log10 Concentration 2.1): 66%; Percent Growth (NCI-H23; NCI-H23, Log10 Concentration −0.9): 101%; Percent Growth (NCI-H23; NCI-H23, Log10 Concentration −1.9): 99%; Growth Percent (NCI-H23; NCI-H23, one dose): 91.82%; TGI (TK-10; TK-10): 4.91E0; Percent Growth (TK-10; TK-10, Log10 Concentration 0.1): 106%; Percent Growth (TK-10; TK-10, Log10 Concentration 1.1): −72%; Percent Growth (TK-10; TK-10, Log10 Concentration 2.1): −100%; Percent Growth (TK-10; TK-10, Log10 Concentration −0.9): 98%; Percent Growth (TK-10; TK-10, Log10 Concentration −1.9): 96%; Growth Percent (TK-10; TK-10, one dose): −92.37%; GI50 (TK-10; TK-10, in µg/mL): 2.57E0; LC50 (TK-10; TK-10, in µg/mL): 9.38E0; TGI (RPMI-8226; RPMI-8226): >1.25E2; Percent Growth (RPMI-8226; RPMI-8226, Log10 Concentration 0.1): 105%; Percent Growth (RPMI-8226; RPMI-8226, Log10 Concentration 1.1): 100%; Percent Growth (RPMI-8226; RPMI-8226, Log10 Concentration 2.1): 72%; Percent Growth (RPMI-8226; RPMI-8226, Log10 Concentration −0.9): 102%; Percent Growth (RPMI-8226; RPMI-8226, Log10 Concentration −1.9): 105%; Growth Percent (RPMI-8226; RPMI-8226, one dose): 96.01%; TGI (SF-295; SF-295): >1.25E2; Percent Growth (SF-295; SF-295, Log10 Concentration 0.1): 101%; Percent Growth (SF-295; SF-295, Log10 Concentration 1.1): 93%; Percent Growth (SF-295; SF-295, Log10 Concentration 2.1): 22%; Percent Growth (SF-295; SF-295, Log10 Concentration −0.9): 100%; Percent Growth (SF-295; SF-295, Log10 Concentration −1.9): 103%; Growth Percent (SF-295; SF-295, one dose): 70.58%; GI50 (SF-295; SF-295, in µg/mL): 5.07E1; TGI (T-47D): >1.25E2; Percent Growth (T-47D; Log10 Concentration 0.1): 88%; Percent Growth (T-47D; Log10 Concentration 1.1): 43%; Percent Growth (T-47D; Log10 Concentration 2.1): 13%; Percent Growth (T-47D; Log10 Concentration −0.9): 96%; Percent Growth (T-47D; Log10 Concentration −1.9): 101%; GI50 (T-47D; in µg/mL): 8.63E0; Growth Percent (T-47D; one dose): 28.25%; TGI (NCI-H522; NCI-H522): 1.25E2; Percent Growth (NCI-H522; NCI-H522, Log10 Concentration 0.1): 105%; Percent Growth (NCI-H522; NCI-H522, Log10 Concentration 1.1): 98%; Percent Growth (NCI-H522; NCI-H522, Log10 Concentration 2.1): 53%; Percent Growth (NCI-H522; NCI-H522, Log10 Concentration −0.9): 100%; Percent Growth (NCI-H522; NCI-H522, Log10 Concentration −1.9): 95%; Growth Percent (NCI-H522; NCI-H522, one dose): 125.90%; TGI (NCI-H460; NCI-H460): >1.25E2; Percent Growth (NCI-H460; NCI-H460, Log10 Concentration 0.1): 100%; Percent Growth (NCI-H460; NCI-H460, Log10 Concentration 1.1): 91%; Percent Growth (NCI-H460; NCI-H460, Log10 Concentration 2.1): 33%; Percent Growth (NCI-H460; NCI-H460, Log10 Concentration −0.9): 104%; Percent Growth (NCI-H460; NCI-H460, Log10 Concentration −1.9): 103%; Growth Percent (NCI-H460; NCI-H460, one dose): 86.38%; GI50 (NCI-H460; NCI-H460, in µg/mL): 6.47E1; TGI (HCC-2998; HCC-2998): >1.25E2; Percent Growth (HCC-2998; HCC-2998, Log10 Concentration 0.1): 105%; Percent Growth (HCC-2998; HCC-2998, Log10 Concentration 1.1): 93%; Percent Growth (HCC-2998; HCC-2998, Log10 Concentration 2.1): 88%; Percent Growth (HCC-2998; HCC-2998, Log10 Concentration −0.9): 99%; Percent Growth (HCC-2998; HCC-2998, Log10 Concentration −1.9): 103%; Growth Percent (HCC-2998; HCC-2998, one dose): 132.04%; IC50 ± SD (A549): 15.73 ± 0.42 mg/L; IC50 ± SD (A549/D16): 11.37 ± 0.55 mg/L; IC50 ± SD (A549/V16): 13.10 ± 0.17 mg/L; TGI (SW-620; SW-620): >1.25E2; Percent Growth (SW-620; SW-620, Log10 Concentration 0.1): 102%; Percent Growth (SW-620; SW-620, Log10 Concentration 1.1): 95%; Percent Growth (SW-620; SW-620, Log10 Concentration 2.1): 53%; Percent Growth (SW-620; SW-620, Log10 Concentration −0.9): 100%; Percent Growth (SW-620; SW-620, Log10 Concentration −1.9): 102%; Growth Percent (SW-620; SW-620, one dose): 87.57%; TGI (HCT-15; HCT-15): 5.26E1; Percent Growth (HCT-15; HCT-15, Log10 Concentration 0.1): 94%; Percent Growth (HCT-15; HCT-15, Log10 Concentration 1.1): 52%; Percent Growth (HCT-15; HCT-15, Log10 Concentration 2.1): −31%; Percent Growth (HCT-15; HCT-15, Log10 Concentration −0.9): 97%; Percent Growth (HCT-15; HCT-15, Log10 Concentration −1.9): 97%; Growth Percent (HCT-15; HCT-15, one dose): 33.64%; GI50 (HCT-15; HCT-15, in µg/mL): 1.31E1
